For series [1], the system named is exemplary modified PPE proproteins.
Series [2] has as its system wild-type PPE proprotein as used in Example 2.

Chain of wild-type PPE proprotein as used in Example 2 (chain, as listed by the source): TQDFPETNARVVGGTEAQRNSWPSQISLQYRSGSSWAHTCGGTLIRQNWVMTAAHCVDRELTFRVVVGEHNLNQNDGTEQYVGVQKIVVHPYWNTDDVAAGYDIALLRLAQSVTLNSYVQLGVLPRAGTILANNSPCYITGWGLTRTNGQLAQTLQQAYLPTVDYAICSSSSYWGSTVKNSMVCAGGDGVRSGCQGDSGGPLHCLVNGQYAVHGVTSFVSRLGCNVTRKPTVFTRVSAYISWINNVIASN

Turning to purified trypsin, in series [1], the “catalytic activity after protease digestion (colorimetric substrate assay), FIG. 4B” value is “catalytically-inactive after incubation with trypsin or no protease”. For the same substance, in series [2], the “catalytic activity after protease digestion (colorimetric substrate assay), FIG. 4B” value is recorded as “the wild-type PPE protein was catalytically-active after incubation with trypsin”; the “protease cleavage by SDS-PAGE and Coomassie blue staining” value is reported as “trypsin cleaved the wild-type PPE as a control”.

The values above are taken from patent publication US20230348881.
